Values quoted from earlier work, collected in PMC3750086.

Columns and labels:
[1] = molecular target: CD28 (Homo sapiens) (UniProt P10747)
[2] = molecular target: PDL1 (Homo sapiens) (UniProt Q9NZQ7)
UniProt Q9NZQ7, sequence (Q9NZQ7 19-238): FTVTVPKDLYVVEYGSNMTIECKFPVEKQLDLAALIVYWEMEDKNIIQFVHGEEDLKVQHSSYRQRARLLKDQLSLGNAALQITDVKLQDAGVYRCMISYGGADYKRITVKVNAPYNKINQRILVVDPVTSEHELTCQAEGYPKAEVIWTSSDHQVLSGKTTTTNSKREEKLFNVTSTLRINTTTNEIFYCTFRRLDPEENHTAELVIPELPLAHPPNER

CD80 (from UniProt P33681)
Kd [1]: 4 µM
Kd [2]: 1.4 µM
